Laboratory results from patent US9480726B2, “Leukotoxin E/D as a new anti-inflammatory agent and microbicide” (New York University, priority 2011, dated 2016).

Legend:
[1] = system: CCR5^+ Jurkat cells; test: Blocking of LukE/D cytotoxicity by CCR5 antagonists, antibodies and ligands, CellTiter; format: cell-based, human; conditions: CCR5^+ Jurkat preincubated 30 minutes, then LukE/D, read 1 hour post-intoxication
Method: One hour post-intoxication, the viability of the cells was determined by CellTiter. […] One hour post-intoxication, the viability of the cells was determined by CellTiter. Results represent the average of triplicate samples±S.D.
To determine if targeting CCR5 blocks LukE/D, the effect of several CCR5 antagonist and ligands on the ability of LukE/D to kill CCR5^+ cells was evaluated. […] In addition, the potential of monoclonal antibodies directed against CCR5 to protect cells from LukE/D cytotoxicity was also evaluated following the experimental protocol described for the CCR5 antagonist. […] Lastly, the potential inhibitory effect of natural ligands of CCR5 was also evaluated. […] Collectively, these findings indicate that the potent cytotoxic activity of LukE/D could be blocked by employing CCR5 antagonist and/or ligands.

[2] = system: primary human macrophages; test: LukE/D cytotoxicity towards primary phagocytes, percent death by flow cytometry; conditions: 1 hour post-intoxication
Method: (§1) Cells were then stained with an anti-CCR5 antibody and a viability dye prior analysis by flow cytometry. […] One hour post-intoxication, the percent death was determined by flow cytometry.
(§2) In addition to T lymphocytes, the cytotoxic activity of LukE/D towards primary human macrophages and dendritic cells was also evaluated.

[3] = system: primary human dendritic cells; test: as above; conditions: 1 hour post-intoxication
Method: as §1, §2

[4] = system: CCR5^+ Jurkat cells; test: LukE/D pore formation, ethidium bromide incorporation and microscopy; format: cell-based, human
Method: Binding of the toxin to the plasma membrane of the cells was monitored via flow cytometry. […] Pore formation was measured over-time by monitoring ethidium bromide incorporation. […] Intoxicated cells were monitored by light (top panels) and by fluorescence microscopy to determine ethidium bromide uptake. Representative images are shown.

[5] = system: parental CCR5^− Jurkat cells; test: Binding of GFP-fused LukE/D toxin to plasma membrane, flow cytometry; set-up: species or system human
Method: (§6) To elucidate the mechanism by which LukE/D utilizes CCR5 to target and kill host cells, Jurkat (CCR5^−) and CCR5^+ Jurkat (CCR5^+) cells were incubated with a GFP-fused LukE/D toxin (^GFPLukE/D) and binding of the fluorescent toxin to the plasma membrane of the cells monitored by flow cytometry.

[6] = system: CCR5^+ Jurkat cells; test: as above; set-up: species or system human
Method: as §6

[7] = system: T lymphocytes from the Δ32CCR5 donor; test: LukE/D intoxication of primary T lymphocytes, viability by flow cytometry; conditions: T lymphocytes of Δ32CCR5 (CCR5^−) donor
Method: as §1
(§3) If CCR5 is the receptor of LukE/D, then primary host cells that their surfaces are decorated with CCR5 (e.g., T lymphocytes, macrophages, natural killer cells, dendritic cells, etc.) will be susceptible to LukE/D mediated cell death. To investigate this in more detail, primary human peripheral blood mononuclear cells (PBMC) were isolated from a wild type CCR5 (CCR5^+) donor and a Δ32CCR5 (CCR5^−) donor and the T lymphocytes expanded followed by intoxication with LukE/D and the viability of the cells determined by flow cytometry.

[8] = system: PM1; test: LukE/D cytotoxicity, cell viability by CellTiter; format: cell-based, human; conditions: PM1 lymphocyte cell line
Method: (§4) Cytotoxicity was determined by a cell viability assay where indicated human immune cells lines were intoxicated with different concentrations of an equimolar mixture of LukE+LukD (LukE/D). Cell viability was monitored 1 hour post-intoxication using CellTiter, where cells treated with medium were set at 100% viable. Results represent the average of triplicate samples±S.D. FIG. 2B depicts that LukE/D kills Hut cell but not other human T lymphocyte-like cell lines. Indicated cell lines were intoxicated with different concentrations of an equimolar mixture of LukE+LukD (LukE/D) and cell viability monitored as in FIG. 2A. Results represent the average of triplicate samples±S.D.
(§5) One mechanism by which LukE/D could be blocked is by inhibiting the interaction of the toxin with its receptor. As an initial strategy to understand how LukE/D interact with host cells, a collection of human immune cell lines were incubated (“intoxicated”) with different concentrations of either individual subunits (i.e., LukE or LukD) or an equimolar mixture of LukE+LukD (LukE/D). […] Upon further investigation, it was discovered that the Hut cells employed the experiments described above have been engineered to over-express the CC-chemokine receptor 5 (CCR5), a receptor for the chemokines MIP-1α, MIP-1β, and RANTES.

[9] = system: Hut cells (T lymphocyte-like cells); test: LukE/D cytotoxicity, cell viability by CellTiter; format: cell-based, human; conditions: Hut cells (over-express CCR5), 1 hour post-intoxication
Method: as §4, §5

[10] = system: Jurkat cells; test: LukE/D cytotoxicity, cell viability by CellTiter; format: cell-based, human; conditions: 1 hour post-intoxication
Method: as §4, §5

[11] = system: H9; test: LukE/D cytotoxicity, cell viability by CellTiter; format: cell-based, human; conditions: H9 lymphocyte cell line
Method: as §4, §5

[12] = system: THP1 cells (human monocytes); test: LukE/D cytotoxicity, cell viability by CellTiter; format: cell-based; conditions: 1 hour post-intoxication
Method: as §4, §5

[13] = system: Primary human T lymphocytes from CCR5^+ donor; test: LukE/D intoxication of primary T lymphocytes, viability by flow cytometry; format: cell-based; conditions: 5.4% in media treated cells
Method: as §1, §3

[14] = system: CCR5^+ Jurkat; test: LukE/D cytotoxicity towards CCR5-transduced cells, CellTiter; format: cell-based, human; conditions: Jurkat transduced with CCR5 cDNA, 1 hour post-intoxication
From the text: FIG. 3 illustrates that the chemokine receptor CCR5 is necessary and sufficient to renders mammalian cells susceptible to LukE/D mediated cytotoxicity. Parental Jurkat (top, left) and GHOST cells (bottom, left) or these cells transduced with a CCR5 cDNA (Jurkat CCR5^+, top/right; GHOST CCR5^+, bottom/right), were intoxicated with LukE, LukD, or equimolar mixture of LukE+LukD (LukE/D). One hour post-intoxication cell viability was monitored with CellTiter, where cells treated with medium were set at 100% viable. Results represent the average of triplicate samples±S.D.
To directly determine the contribution of CCR5 for the ability of LukE/D to target and kill host cells, CCR5 was introduced into Jurkat cells by viral transduction of the CCR5 cDNA resulting in CCR5^+ Jurkat. Jurkat and CCR5^+ Jurkat cells were subsequently intoxicated with different concentrations of either individual subunits (i.e., LukE or LukD) or equimolar mixtures of LukE+LukD (LukE/D).

With Cc1ccc(-c2ccc3c(c2)C=C(C(=O)Nc2ccc(C[N+](C)(C)C4CCOCC4)cc2)CCC3)cc1.[Cl-] [TAK-779] the “blocking of LukE/D mediated cytotoxicity” value [1] was “potently blocked”.

With “LukD: S. aureus Leukocidin D protein subunit, SEQ ID NOs: 12-22” the “cytotoxic activity (killing)” value [2] was “not LukD potently killed” and the “cytotoxic activity (killing)” value [3] was “not LukD potently killed”.

In the case of COC[C@@H](c1ccc(C(F)(F)F)cc1)N1CCN(C2(C)CCN(C(=O)c3c(C)ncnc3C)CC2)C[C@@H]1C [Vicriviroc], the “blocking of LukE/D mediated cytotoxicity” value [1] is reported as “potently blocked”.

LukE/D was tested, and the “pore formation in plasma membrane” value ([4]; ethidium bromide incorporation over time) was “forms pores”, the cell swelling ([4]; light and fluorescence microscopy) was “associated with cell swelling” and the “binding of toxin to plasma membrane” value [5] was “not to the parental CCR5^− Jurkat cells”. For the same molecule, the “binding of toxin to plasma membrane” value ([6]; GFP-fused LukE/D, CCR5^+ Jurkat) was “binds”, the “cytotoxic activity (killing)” value [2] was “potently killed” and the “cytotoxic activity (killing)” value [3] was “potently killed”. The LukE/D mediated cytotoxicity [7] was “highly refractory”, the cytotoxicity [8] was “only the Hut cells were susceptible” and the cytotoxicity [9] was “exhibits cytotoxicity”. The cytotoxicity [10] was “not towards Jurkat cells”, the cytotoxicity [11] was “only the Hut cells were susceptible” and the cytotoxicity [12] was “exhibits cytotoxicity”. The cell death [13] was 34% and the LukE/D mediated toxicity [14] was “susceptible”.

In the case of “RANTES: natural ligand (chemokine) of CCR5”, the “blocking of LukE/D mediated cytotoxicity” value [1] is reported as “potently inhibit”.

Maraviroc [reference compound] was tested, and the “blocking of LukE/D mediated pore formation” value ([4]; pre-incubation with Maraviroc, ethidium bromide incorporation) was “potently blocked”, the “blocking of LukE/D cell swelling” value ([4]; pre-incubation with Maraviroc, microscopy) was “fully blocked” and the “inhibition of LukE/D binding to cells” value ([6]; CCR5^+ Jurkat pre-incubated with Maraviroc, then GFP-labeled LukE/D) was “potently inhibited”.

B1: MIP-1β: natural ligand (chemokine) of CCR5 (protein)
chain: APMGSDPPTACCFSYTARKLPRNFVVDYYETSSLCSQPAVVFQTKRSKQVCADPSESWVQEYVYDLELN
For B1, the “blocking of LukE/D mediated cytotoxicity” value [1] was “potently inhibit”.
